Laboratory results: the supplement of paper PMC9170038

Tested on: MS2 coat protein
Assay: apparent KD of MS2 coat protein; higher = weaker reporter binding
Details: Eterna round: R107
Summary of the method: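 Designed RNA switches were transcribed on-chip from Illumina sequencing clusters. They were then titrated with SNAP-549-labelled MS2 coat protein (twofold steps, 0.7 or 1.5 nM to 3 µM; 0.8–1.5 h to 10–20 min per step) in 100 mM Tris-HCl pH 7.5, 80 mM KCl, 4 mM MgCl2, without or with constant ligand. Apparent KD is the per-design median of normalised cluster binding-curve fits.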

[1] = input ligand: theophylline 20 uM
[2] = input ligand: theophylline 2 mM
[3] = input ligand: tryptophan 2.4 mM

Row | Sequence | apparent KD of MS2 coat protein (input ligand: arginine 13.2 mM) | apparent KD of MS2 coat protein [1] | apparent KD of MS2 coat protein [2] | apparent KD of MS2 coat protein [3] | apparent KD of MS2 coat protein (input ligand: none)
1 | GAGCUCGUGGACUGGCGUGCUCCGCUCCGUCGAGGACCGGUACGGCCGCCACUCGACAUGAGGAUCACCCAUGUGUGAGCUCGCU [#1 Exclusion - Tryptophan A Attempt #21 (HarryS)] | 61.1 nM | 185 nM | 390 nM | – | –
2 | GAGCUGAUGUAGAGAAUAAAUAUAAGAGAUACCAGUACAGAAAUGUACCCUUGGCAGCUCAACUUUACAUGAGGAUCACCCAUGU [Ex Theophylline A 18] | 14.1 nM | 16.7 nM | – | 13.9 nM | –
3 | GAGCUGAUGUAGAGCUAAUAUAAGAGAGAUACCAGUACAGAAAUGUACCCUUGGCAGCUCAACUUUACAUGAGGAUCACCCAUGU [Ex Theophylline A 21] | 12.2 nM | 13.4 nM | – | 16 nM | –
4 | GAGUAGAGGACGGCCGCCACUGAACAUGAGGAUCACCCAUGUCGUGAUCCGUUGCCUGAAGAAGAUAGGACCGGGUCAUGUGCUC [Exclusion Tryptophan B GF 20] | 40.4 nM | 44.7 nM | 31.8 nM | 25.5 nM | 28.6 nM
5 | GAUAGAACAAAAGUUUUAUCAGUGGGUGAACGAGGACCGGUACGGCCGCCACUCGGACAUGAGGAUCACCCAUGUCCAUGUGAAA [AstrosExyTryA#17] | 12.6 nM | 17.1 nM | 19.5 nM | 43.9 nM | 18.1 nM
6 | GAUAGUUGAUGGGAUACCAGCGUGCACAUGAGGAUCACCCAUGUGGUUCGUGUACGACGGCGCCCUUGGCAGCCCAUAUUGUGUA [#13 Same State - Theophylline B] | 58.2 nM | 116 nM | – | 181 nM | –
7 | GAUAUGGAAACAUGUCAGAUCCUUACCGGUCGAGGACCGGUACGGCCGCCACUCGAAAAUAAUAAACAUGAGGAUCACCCAUGUA [Ex Tryptophan A 16] | 17 nM | 18.8 nM | 17.5 nM | – | –
8 | GAUGAACUAUUUGAUACCAGACAACAUGAGGAUCACCCAUGUGCGCGUCGUCCUCUGCCUGUCCCUUGGCAGCAAAUAGUUUAUC [XTheo B #10] | 52.6 nM | 81.8 nM | – | 36.6 nM | –
9 | GAUGGAAUAAGAGAUACCAGACACAAUUUAGCAUGUAUAUACAUGAGGAUCACCCAUGUAGUCCCUUGGCAGCUCUGGUUAGUGU [theeternabot_exclusion_MS2_Theo_B_48] | 21.4 nM | 27.7 nM | – | 20.8 nM | –
10 | GCAAUAACGAUUGAUACCAGCAUGUUAACAUGAGGAUCACCCAUGUUAAGGAUAACAUAAUGCCCUUGGCAGCAACGGAAAGCCG [Ac] | 16.8 nM | 22.9 nM | – | 18.5 nM | –
11 | GCACCAGGUACGGAUACCAGAGCAAGCCAAAUGAGUGACCAUGAGGAUCACCCAUGGUUGCUCCCUUGGCAGCCGUACCUGGUGC [ETB NP+V+V2 #13 Diff Apt, +-Same Structure] | 7.28 nM | 12.1 nM | 79 nM | 10.9 nM | 12 nM
12 | GCACGACAUGAGGAUCACCCAUGUGCCGAUACCAGCCGGAUAUACGGCCCUUGGCAGCGGAGUGGAUCCGGAGGACCAUGGGUAA [Same State Theophylline A GF7] | 2.16 nM | 156 nM | 250 nM | 92.5 nM | 236 nM
13 | GCAGACAUGAGGAUCACCCAUGUACUUGGGCGAGGACCGGUACGGCCGCCACUCGUAGACUUGACGAGGAAAUGUUCUCGCAGGG [theeternabot_sameState_MS2_Trp_A_24] | 22.1 nM | 31.6 nM | 28.4 nM | – | –
14 | GCAUCCUAGUCGGCCGCCACUGGUACGAACACCUUCACCCGUGUGCACAUGAGGAUCACCCAUGUUAGGACCGGGACUAGGAUGC [SSTryp B #21] | 10.3 nM | 11 nM | 8.45 nM | – | –
15 | GCAUCCUAGUCGGCCGCCACUGGUAUCAACACCUUCACCCGUGUGCACAUGAGGAUCACCCAUGUUAGGACCGGGACUAGGAUGC [SSTryp B #19] | 8.01 nM | 12.5 nM | 9.55 nM | – | –
16 | GCCGCGGCCGCGAUACACAUGGGUGUGUAACGAGGACCGGUACGGCCGCCACUCGAGAUGAUGUACAUGAGGAUCACCCAUGUAC [Exclusion Tryp A GF13] | 11.8 nM | 15.4 nM | 11.9 nM | 13.9 nM | 11.6 nM
17 | GCCGCGGCCGGAAUAAACAUGGGUAAAUAACGAGGACCGGUACGGCCGCCACUCGAGAUAAAUAACAUGAGGAUCACCCAUGUAC [Exclusion Tryp A GF11] | 43 nM | 111 nM | 123 nM | – | –
18 | GCGCGCGCCGAAAGGCGCGCGUGUUGCGAUACCAGCCCGGAAACGGGCCCUUGGCAGCGCACAUGAGGAUCACCCAUGUCAUGUU [Exclusion - Theophylline A Attempt #1 (HarryS)] | 14.9 nM | 27.1 nM | 24.5 nM | 21.9 nM | 17.9 nM

Row | Sequence | apparent KD of MS2 coat protein (input ligand: arginine 13.2 mM) | apparent KD of MS2 coat protein [1] | apparent KD of MS2 coat protein [2] | apparent KD of MS2 coat protein [3] | apparent KD of MS2 coat protein (input ligand: none)
19 | GCUACGUGCUGAAGGAGCGUGGACCUAAACAUGAGGAUCACCCAUGUCGUGUAGGCAGAUUCACAGGUAGGUCGCAGCACGUAGC [SSAB NP+V+V2 #14 Same Structure] | 61.2 nM | 123 nM | 120 nM | 99.7 nM | 92.2 nM
20 | GCUGUAAGUGCAGAUACCAGCAAGUGAGGUUUCAUAUGACAUGAGGAUCACCCAUGUAUCUGCCCUUGGCAGCUGCACUUACAGC [#28 Same State - Theophylline B] | 17 nM | 24.2 nM | – | 21.7 nM | –
21 | GCUUAGAAACCUGAUACCAGUCAGCCCUAUGACAUGAGGAUCACCCAUGUGAUACUCACGGACCCUUGGCAGCAGGGUCGAUUAC [theeternabot_sameState_MS2_Theo_B_17] | 231 nM | 812 nM | – | 1000 nM | –
22 | GCUUGGGUCGCAAGGCCCUGGCGUUGCGAUACCAGCACGGUAACGUGCCCUUGGCAGCGCACAUGAGGAUCACCCAUGUGGUGCG [#1 Exclusion - Theophylline A Attempt #22 (HarryS)] | 16.5 nM | 27.8 nM | 229 nM | 17.4 nM | 18.3 nM
23 | GGACCAUGGAGCGAUACCAGCUUGAGUGUGCUGGCCAGGCACAUGAGGAUCACCCAUGUAAGCCCUUGGCAGCGCUCCAUGGUCC [#1 Exclusion - Theophylline B Attempt #26 (HarryS)] | 7.45 nM | 13.3 nM | 13.5 nM | 10.6 nM | 8.39 nM
24 | GGACGAAGUUUCUUGUCCGGUCGCUGAGAAGGAGCGCGGUAAACCGCAGGUAGGUCGCUCAGAAAUACAUGAGGAUCACCCAUGU [Orsosous] | 17.1 nM | 27.2 nM | 21.4 nM | 21.5 nM | 21.1 nM
25 | GGACUAACCAGAAGGAGCGACACGCAGAAACUGCAAUUUCCUCCACACGAGGAUCACCCGUGUCAGGUAGGUCGCUGGUUAGUCG | 28.3 nM | 37.3 nM | 31 nM | 26.7 nM | 25.4 nM
26 | GGACUAACCAGAAGGAGCGACACGCAGAAACUGCAAUUUCCUCUACACGAGGAUCACCCGUGUCAGGUAGGUCGCUGGUUAGUCG | 50 nM | 74.8 nM | 65 nM | 54 nM | 53.1 nM
27 | GGACUAACCAGAAGGAGCGACACGCAGAAACUGCUAAAUCCUCCGCACGAGGAUCACCCGUGUCAGGUAGGUCGCUGGUUAGUCG [ArgBX 28] | 36.2 nM | 66.7 nM | 47.5 nM | 49.9 nM | 45.5 nM
28 | GGACUAACCAGAAGGAGCGAUACGCAGAAACUGCAAUUUCCUCUACACGAGGAUCACCCGUGUCAGGUAGGUCGCUGGUUAGUCG | 25.2 nM | 35.2 nM | 29.7 nM | 26.7 nM | 26.9 nM
29 | GGACUAACCAGAAGGAGCGGCACGCAGAAACUGCAAUUUCCUCCGCACGAGGAUCACCCGUGUCAGGUAGGUCGCUGGUUAGUCG | 21.8 nM | 27.5 nM | 24.5 nM | 25.4 nM | 20.4 nM
30 | GGACUAACCAGAAGGAGCGGCACGCAGAAACUGCUAAUUCCUCCGCACGAGGAUCACCCGUGUCAGGUAGGUCGCUGGUUAGUCG [ArgBX 28] | 14.9 nM | 13.8 nM | 14.8 nM | 13 nM | 11.3 nM
31 | GGACUAACUCGAAGGAGCGACACGCAGAAACUGCAAUUUCCUCCACACGAGGAUCACCCGUGUCAGGUAGGUCGCGAGUUAGUCG [ArgBX 29] | 20.8 nM | 26.3 nM | 28 nM | 19.8 nM | 21.8 nM
32 | GGAUAGGACACGGCCGCCACUACCUAGGAUACUAGCAACAUUUGGGUACAAGAGGAUCACCCUUGUAGGACCGGGUGUCCUAUCG | 23.1 nM | 28 nM | 25.5 nM | 59 nM | 22.1 nM
33 | GGAUAGGACACGGCCGCCACUAUCUAGGAUACUAGCAACAUUUGGGUAUAUGAGGAUCACCCAUAUAGGACCGGGUGUCCUAUCG | 138 nM | 330 nM | 303 nM | 471 nM | 214 nM
34 | GGAUAGGACAGAAGGAGCGACAUGGCGACGAAAGUCGGACCUUCACAUGAGGAUCACCCAUGUCAGGUAGGUCGCUGUCCUAUCG [ArgXB 6 #MS2Gate #StaticStem] | 38 nM | 55.2 nM | 52.4 nM | 46.1 nM | 48.4 nM
35 | GGAUCCAUCCGAAGGAGCGUCGGAAAUGGGUAAACAUGAGGAUCACCCAUGUAAAGGGAACGGCAGGUAGGUCGCGGAUGGAUCC [#25 Same State - Arginine B] | 132 nM | 167 nM | 157 nM | 195 nM | 99.1 nM
36 | GGAUGAAACUGAAGGAGCGAGAACACAAGAAUGGGUCAAACAUGAGGAUCACCCAUGUAAUCUCAGGUAGGUCGCAGUAUCCCUU [Exclusion Arginine B GF 10] | 44 nM | 50 nM | 53.3 nM | 36.6 nM | 34.3 nM
